Test results as given in patent US20250145684A1.
Where two headings read alike, the source gives them in different places.

Biological target: HLA-B*08:01 (human)
Assay: UV peptide exchange ELISA

peptide exchange yield (remark: other sources report otherwise)	peptide exchange yield	Binder
50 to 75%		EPVTKAEM [EPVTKAEM (SEQ ID NO: 97)]
	50 to 75%	FAFEKLIQF (modifications not checked) [… (SEQ ID NO: 101)]
